The source of these data is patent publication US20220153864A1 (Pieris, published 2022).

The target in test [1] is T1, recombinant human GPC3 (huGPC3) (R&D Systems) (human, UniProt P51654 25-559).
T1 construct: also called biotinylated huGPC3
Nature of the test: SPR (Biacore T200), binder captured by anti-human IgG Fc, huGPC3 as analyte, 1:1 model. The procedure: (§1) The anti-human IgG Fc antibody (GE Healthcare) was immobilized on a CM5 sensor chip using standard amine chemistry: the carboxyl groups on the chip were activated using 1-ethyl-3-(3-dimethylaminopropyl)-carbodiimide (EDC) and N-hydroxysuccinimide (NHS). Subsequently, anti-human IgG Fc antibody solution (GE Healthcare) at a concentration of 25 μg/mL in 10 mM sodium acetate (pH 5.0) was applied at a flow rate of 5 μL/min until an immobilization level of 6000-10000 resonance units (RU) was achieved. Residual non-reacted NHS-esters were blocked by passing a solution of 1M ethanolamine across the surface. The reference channel was treated in an analogous manner. Subsequently, testing fusion proteins (SEQ ID NOs: 87 and 82 and CD137Ac1-Fusion 1) or the GPC3 antibody as included in the fusion protein (SEQ ID NOs: 81 and 82) at 0.2 μg/ml in HBS-EP+ buffer was captured by the anti-human IgG-Fc antibody at the chip surface for 180 s at a flow rate of 10 μL/min. After each capture step, the needle was washed.
(§2) The binding assay was carried out with a contact time of 180 s, a dissociation time of 900 s, and a flow rate of 30 μL/min. After each injection, the needle was cleaned with 40 mM NaOH+20% isopropanol. All measurements were performed at 25° C. […] Prior to the protein measurements, three startup cycles were performed for conditioning purposes. Data were evaluated with Biacore T200 Evaluation software (v2.0). Double referencing was used and the 1:1 binding model was used to fit the raw data.
On the technique in general: SPR reads the build-up and loss of mass on a sensor chip optically.

Test [2] has as its target T2, human CD137 expressed on cells (Flp-In-CHO::huCD137; NFkB-luc2/CD137 Jurkat cells) (human, UniProt Q07011 24-255).
T2 construct: whole, on cells; also called human CD137-expressing cells
Nature of the test: flow cytometry on Flp-In-CHO::huCD137 cells, anti-human IgG detection. The procedure: For flow cytometric analysis, respective cell lines were incubated with an exemplary fusion protein (SEQ ID NOs: 87 and 82), the GPC3 antibody or the CD137 specific lipocalin mutein (Fc fusion) as included in the fusion protein (SEQ ID NOs: 81 and 82 and SEQ ID NO: 98, respectively), a reference CD137 antibody SEQ ID NOs: 26 and 27, or an isotype control (SEQ ID NOs: 24 and 25) and detected using a fluorescently labeled anti-human IgG antibody in FACS analysis as described in the following:
5×10⁴ cells per well were incubated for 1 h in ice-cold PBS containing 5% fetal calf serum (PBS-FCS). A dilution series of the testing molecule were added to the cells and incubated for 1 h on ice. Cells were washed twice with PBS and then incubated with a goat anti-hlgG Alexa647-labeled antibody or goat anti-hlgG Alexa488-labeled antibody for 30 min on ice. Cells were subsequently washed and analyzed using iQue Flow cytometer (Intellicyte Screener). Mean geometric fluorescent signals were plotted and fitted with Graphpad software. The geometric means of the fluorescence intensity were used to calculate EC₅₀ values using a four-parameter logistic regression with bottom fixed to background.
In general terms: A flow cytometer gives signals particle by particle.

Test [3] concerns the target T1, recombinant human GPC3 (huGPC3) (R&D …). Nature of the test: dual-binding ELISA: huGPC3 coated, fusion titrated, detection with biotinylated huCD137-His. The procedure: Recombinant huCD137-His (R&D Systems) in PBS (1 μg/mL) was coated overnight on microtiter plates at 4° C. The plates were washed five times after each incubation step with 100 μL PBS-0.05% T. The plates were blocked with PBS-0.1% T-2% BSA for 1 h at room temperature and subsequently washed again. Different concentrations of tested fusion proteins were added to the wells and incubated for 1 h at room temperature, followed by a wash step. Subsequently, biotinylated huGPC3 was added at a constant concentration of 1 μg/mL in PBS-0.1% T-2% BSA for 1 h. After washing, a 1:5000 dilution of ExtrAvidin-HRP (Sigma-Aldrich) in PBS-0.1% T-2% BSA was added to the wells and incubated for 1 h. After an additional wash step, fluorogenic HRP substrate (QuantaBlu, Thermo) was added to each well, and the fluorescence intensity was detected using a fluorescence microplate reader.
The dual binding of fusion proteins was also tested with a reverse set-up where recombinant huGPC3 (R&D Systems) was coated on microtiter plates at 1 μg/ml and the bound fusion proteins were detected via the addition of 5 μg/mL biotinylated huCD137-His.
Exemplary dual binding data are shown in FIG. 3, together with the fit curves resulting from a 1:1 sigmoidal binding fit, where the EC₅₀ value and the maximum signal were free parameters, and the slope was fixed to unity.
(In general: In an ELISA, binding on a coated surface is turned into a signal by an enzyme label.)

Test [4] deals with T3, recombinant cynomolgus GPC3 (cyGPC3) (R&D Systems) (cynomolgus, UniProt A0A2K5VK50 24-558). Nature of the test: ELISA, cyGPC3 coated. The procedure: Recombinant huGPC3 (R&D Systems) at the concentration of 1 μg/mL in PBS was coated overnight on microtiter plates at 4° C. After five washes with 100 μL PBS-0.05% T (PBS supplemented with 0.05% (v/v) Tween 20), the plates were blocked with 2% BSA (w/v) in PBS-0.1% T (PBS-0.1% T-2% BSA) for 1 h at room temperature. After washing with 100 μL PBS-0.05% T (PBS supplemented with 0.05% (v/v) Tween 20) five times, exemplary fusion proteins (SEQ ID NOs: 87 and […] and CD137Ac1-Fusion 1 to 7) or the GPC3 antibody as include in the fusion proteins (SEQ ID NOs: 81 and 82) at different concentrations were added to the wells and incubated for 1 h at room temperature, followed by another wash step. Bound molecules under study were detected by incubation with 1:5000 diluted anti-human IgG Fc-HRP (Jackson Laboratory) in PBS-0.1% T-2% BSA. After an additional wash step, fluorogenic HRP substrate (QuantaBlu, Thermo) was added to each well and the fluorescence intensity was detected using a fluorescence microplate reader.
The same ELISA setup was also employed to determine the binding potency of fusion proteins to cynomolgus GPC3 and huCD137, where recombinant cyGPC3 (R&D Systems) or huCD137-His (recombinant human CD137 with C-terminal polyhistidine tag, R&D Systems) was instead coated on a microtiter plate. The testing agents were similarly titrated and bound agents were detected via anti-NGAL-HRP. […]

The target of test [5] is T3, recombinant cynomolgus GPC3 (cyGPC3) …. Briefly: SPR (Biacore T200), binder captured by anti-human IgG Fc, cyGPC3 as analyte, 1:1 model. As to the method: as §1, §2

T1 sequence (P51654 25-559 limits assumed): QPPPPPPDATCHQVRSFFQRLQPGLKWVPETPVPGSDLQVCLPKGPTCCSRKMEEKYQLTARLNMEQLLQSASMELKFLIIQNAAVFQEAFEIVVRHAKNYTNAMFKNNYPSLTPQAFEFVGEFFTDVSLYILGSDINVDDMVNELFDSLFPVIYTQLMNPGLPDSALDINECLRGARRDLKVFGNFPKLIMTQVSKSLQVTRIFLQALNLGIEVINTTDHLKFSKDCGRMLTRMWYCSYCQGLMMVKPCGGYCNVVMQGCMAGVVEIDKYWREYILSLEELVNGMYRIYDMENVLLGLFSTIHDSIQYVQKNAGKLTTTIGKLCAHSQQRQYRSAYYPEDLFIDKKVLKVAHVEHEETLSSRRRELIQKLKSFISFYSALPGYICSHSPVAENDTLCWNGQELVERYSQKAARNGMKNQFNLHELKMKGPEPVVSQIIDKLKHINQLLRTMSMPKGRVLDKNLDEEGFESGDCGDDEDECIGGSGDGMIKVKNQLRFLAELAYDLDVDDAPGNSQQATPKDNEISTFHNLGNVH
T2 sequence (Q07011 24-255): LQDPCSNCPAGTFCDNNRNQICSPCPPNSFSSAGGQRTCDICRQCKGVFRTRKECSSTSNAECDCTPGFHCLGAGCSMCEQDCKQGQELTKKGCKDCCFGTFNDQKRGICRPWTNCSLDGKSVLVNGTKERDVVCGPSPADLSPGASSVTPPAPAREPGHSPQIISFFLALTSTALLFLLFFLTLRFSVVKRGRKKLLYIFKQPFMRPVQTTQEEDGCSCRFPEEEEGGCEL

B1: fusion protein SEQ ID NOs: 87 and 82 (bispecific antibody, human IgG4 S228P, kappa, F234A L235A)
heavy: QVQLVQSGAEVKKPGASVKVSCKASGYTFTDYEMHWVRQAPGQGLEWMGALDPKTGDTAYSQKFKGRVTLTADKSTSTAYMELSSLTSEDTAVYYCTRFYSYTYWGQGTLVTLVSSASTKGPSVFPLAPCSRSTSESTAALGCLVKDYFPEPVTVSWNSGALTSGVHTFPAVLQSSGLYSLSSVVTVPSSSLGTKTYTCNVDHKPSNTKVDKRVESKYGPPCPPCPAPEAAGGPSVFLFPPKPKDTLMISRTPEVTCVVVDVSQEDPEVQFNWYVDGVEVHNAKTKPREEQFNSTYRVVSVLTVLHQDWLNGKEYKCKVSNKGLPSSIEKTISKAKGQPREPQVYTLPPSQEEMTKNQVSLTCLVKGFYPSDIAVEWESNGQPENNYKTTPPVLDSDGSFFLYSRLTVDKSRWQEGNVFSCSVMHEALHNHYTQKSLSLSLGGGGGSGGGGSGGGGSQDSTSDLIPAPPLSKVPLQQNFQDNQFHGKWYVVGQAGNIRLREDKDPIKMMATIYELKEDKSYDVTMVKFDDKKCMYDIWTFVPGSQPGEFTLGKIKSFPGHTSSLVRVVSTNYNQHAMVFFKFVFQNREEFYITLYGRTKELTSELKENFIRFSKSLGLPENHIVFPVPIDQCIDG
light: DVVMTQSPLSLPVTPGEPASISCRSSQSLVHSNRNTYLHWYLQKPGQSPQLLIYKVSNRFSGVPDRFSGSGSGTDFTLKISRVEAEDVGVYYCSQNTHVPPTFGQGTKLEIKRTVAAPSVFIFPPSDEQLKSGTASVVCLLNNFYPREAKVQWKVDNALQSGNSQESVTEQDSKDSTYSLSSTLTLSKADYEKHKVYACEVTHQGLSSPVTKSFNRGEC
notes: also called exemplary fusion protein
Turning to B1, the Kd – broadly, the equilibrium constant for the complex coming apart – in test [1] was found to be 0.657 nM; in test [5] it was 0.936 nM. Also, the koff (commonly the rate constant with which the complex falls apart) stood at 0.000269 s⁻¹ in test [1] and 0.000275 s⁻¹ in test [5]. For the same molecule, the kon (commonly the second-order rate constant of association) turned out to be 409000 M⁻¹ s⁻¹ in test [1] and 293000 M⁻¹ s⁻¹ in test [5]. In addition, the EC50 (usually the concentration needed to bring the measured effect to its halfway point) is 13.1 nM in test [2], 0.98 nM in test [3] and 0.34 nM in test [4].
